Bridge positions count the residues as written; N and C are the ends. Square brackets hold non-standard residues; d marks the D form. Ends that are not written are not given here. Trp(1-Me) = Cn1cc(C[C@H](N)C(=O)O)c2ccccc21; NMeI = CC[C@H](C)[C@H](NC)C(=O)O; Orn = NCCC[C@H](N)C(=O)O; Sar = CNCC(=O)O
Experiments:
[1] = target: C3b (biotinylated, captured site-specifically on a streptavidin chip) (UniProt P01024); assay: SPR (Biacore 3000), single-cycle kinetics, biotinylated C3b on streptavidin chip, peptide as analyte, 1:1 Langmuir fit
[2] = target: C3b (biotinylated, captured site-specifically on a streptavidin chip) (UniProt P01024); assay: SPR on immobilised C3b
[3] = target: C3b (biotinylated, captured site-specifically on a streptavidin chip) (UniProt P01024); assay: SPR, single-cycle kinetics on immobilised C3b (method of Example 2)

B1: Peptide 7: Trp-Ile-[Cys-Val-Trp(Me)-Gln-Asp-Trp-Sar-Ala-His-Arg-Cys]-mIle-NH2 (peptide)
peptide: WICV[Trp(1-Me)]QDW[Sar]AHRC[NMeI]-NH2
modifications: disulfide 3-13; N-terminus assumed
SMILES: CC[C@H](C)[C@H](NC(=O)[C@@H](N)Cc1c[nH]c2ccccc12)C(=O)N[C@H]1CSSC[C@@H](C(=O)N(C)[C@H](C(N)=O)[C@@H](C)CC)NC(=O)[C@H](CCCNC(=N)N)NC(=O)[C@H](Cc2c[nH]cn2)NC(=O)[C@H](C)NC(=O)CN(C)C(=O)[C@H](Cc2c[nH]c3ccccc23)NC(=O)[C@H](CC(=O)O)NC(=O)[C@H](CCC(N)=O)NC(=O)[C@H](Cc2cn(C)c3ccccc23)NC(=O)[C@H](C(C)C)NC1=O
Kd [1]: 2.2 nM | koff [1]: 0.0036 s⁻¹ | kon [1]: 1.6e+06 M⁻¹ s⁻¹

B2: Peptide 5: Phe-Ile-[Cys-Val-Trp(Me)-Gln-Asp-Trp-Sar-Ala-His-Arg-Cys]-mIle-NH2 (peptide)
peptide: FICV[Trp(1-Me)]QDW[Sar]AHRC[NMeI]-NH2
modifications: disulfide 3-13; N-terminus assumed
SMILES: CC[C@H](C)[C@H](NC(=O)[C@@H](N)Cc1ccccc1)C(=O)N[C@H]1CSSC[C@@H](C(=O)N(C)[C@H](C(N)=O)[C@@H](C)CC)NC(=O)[C@H](CCCNC(=N)N)NC(=O)[C@H](Cc2c[nH]cn2)NC(=O)[C@H](C)NC(=O)CN(C)C(=O)[C@H](Cc2c[nH]c3ccccc23)NC(=O)[C@H](CC(=O)O)NC(=O)[C@H](CCC(N)=O)NC(=O)[C@H](Cc2cn(C)c3ccccc23)NC(=O)[C@H](C(C)C)NC1=O
Kd [1]: 1.6 nM | koff [1]: 0.0033 s⁻¹ | kon [1]: 2.1e+06 M⁻¹ s⁻¹

B3: Peptide 20: Tyr-Gly-[Cys-Val-Trp(Me)-Gln-Asp-Trp-Sar-Ala-His-Arg-Cys]-mIle-NH2 (peptide)
peptide: YGCV[Trp(1-Me)]QDW[Sar]AHRC[NMeI]-NH2
modifications: disulfide 3-13; N-terminus assumed
SMILES: CC[C@H](C)[C@@H](C(N)=O)N(C)C(=O)[C@@H]1CSSC[C@H](NC(=O)CNC(=O)[C@@H](N)Cc2ccc(O)cc2)C(=O)N[C@@H](C(C)C)C(=O)N[C@@H](Cc2cn(C)c3ccccc23)C(=O)N[C@@H](CCC(N)=O)C(=O)N[C@@H](CC(=O)O)C(=O)N[C@@H](Cc2c[nH]c3ccccc23)C(=O)N(C)CC(=O)N[C@@H](C)C(=O)N[C@@H](Cc2c[nH]cn2)C(=O)N[C@@H](CCCNC(=N)N)C(=O)N1
fold weaker binding affinity than peptide 4 [2]: 3 fold | Kd [1]: 3.5 nM | koff [1]: 0.0073 s⁻¹ | kon [1]: 2.1e+06 M⁻¹ s⁻¹

B4: Peptide 10: mPhe-Ile-[Cys-Val-Trp(Me)-Gln-Asp-Trp-Sar-Ala-His-Arg-Cys]-mIle-NH2 (peptide)
peptide: FICVWQDWGAHRCI
modifications: mPhe (N-methyl-Phe) at Xaa0; Trp(Me) at position 4; Sar at position 8; mIle at position 13; C-terminal -NH2; cyclic via Cys2-Cys12 disulfide (compstatin position numbering)
Kd [1]: 1.8 nM | koff [1]: 0.0029 s⁻¹ | kon [1]: 1.6e+06 M⁻¹ s⁻¹

B5: Peptide 12: mIle-Ile-[Cys-Val-Trp(Me)-Gln-Asp-Trp-Sar-Ala-His-Arg-Cys]-mIle-NH2 (peptide)
peptide: IICVWQDWGAHRCI
modifications: mIle (N-methyl-Ile; printed 'mlle') at Xaa0; Trp(Me) at position 4; Sar at position 8; mIle at position 13; C-terminal -NH2; cyclic via Cys2-Cys12 disulfide (compstatin position numbering)
Kd [1]: 2.4 nM | koff [1]: 0.0037 s⁻¹ | kon [1]: 1.6e+06 M⁻¹ s⁻¹

B6: Cp40 (11Orn 6Asn) (peptide)
peptide: [dY]ICV[Trp(1-Me)]QNW[Sar]AH[Orn]C[NMeI]-NH2
modifications: disulfide 3-13
Kd [3]: 1.5 nM | koff [3]: 0.0028 s⁻¹ | kon [3]: 2e+06 M⁻¹ s⁻¹

B7: Compstatin 30 (Cp30): Sar-Ile-[Cys-Val-Trp(Me)-Gln-Asp-Trp-Sar-Ala-His-Arg-Cys]-mIle-NH2 (peptide)
peptide: GICVWQDWGAHRCI
modifications: Sar (N-methyl-Gly) at Xaa0 (N-terminus); Trp(Me) at position 4; Sar at position 8; mIle at position 13; C-terminal -NH2; cyclic via Cys2-Cys12 disulfide (compstatin position numbering)
Kd [1]: 1.6 nM | koff [1]: 0.0029 s⁻¹ | kon [1]: 1.9e+06 M⁻¹ s⁻¹

B8: Cp40 (11Orn) (peptide)
peptide: [dY]ICV[Trp(1-Me)]QDW[Sar]AH[Orn]C[NMeI]-NH2
modifications: disulfide 3-13
Kd [3]: 0.8 nM | koff [3]: 0.002 s⁻¹ | kon [3]: 2.5e+06 M⁻¹ s⁻¹

B9: Peptide 1: Me-Ile-[Cys-Val-Trp(Me)-Gln-Asp-Trp-Sar-Ala-His-Arg-Cys]-mIle-NH2 (peptide)
peptide: Me-ICVWQDW[Sar]AHRC[NMeI]-NH2
modifications: disulfide 2-12; not fully specified (residue 4); printed as Me-Ile-[Cys-Val-Trp(Me)-Gln-Asp-Trp-Sar-Ala-His-Arg-Cys]-mIle-NH2
Kd [1]: 18.6 nM | koff [1]: 0.0248 s⁻¹ | kon [1]: 1.3e+06 M⁻¹ s⁻¹

B10: Peptide 8: Thr-Ile-[Cys-Val-Trp(Me)-Gln-Asp-Trp-Sar-Ala-His-Arg-Cys]-mIle-NH2 (peptide)
peptide: TICV[Trp(1-Me)]QDW[Sar]AHRC[NMeI]-NH2
modifications: disulfide 3-13; N-terminus assumed
SMILES: CC[C@H](C)[C@H](NC(=O)[C@@H](N)[C@@H](C)O)C(=O)N[C@H]1CSSC[C@@H](C(=O)N(C)[C@H](C(N)=O)[C@@H](C)CC)NC(=O)[C@H](CCCNC(=N)N)NC(=O)[C@H](Cc2c[nH]cn2)NC(=O)[C@H](C)NC(=O)CN(C)C(=O)[C@H](Cc2c[nH]c3ccccc23)NC(=O)[C@H](CC(=O)O)NC(=O)[C@H](CCC(N)=O)NC(=O)[C@H](Cc2cn(C)c3ccccc23)NC(=O)[C@H](C(C)C)NC1=O
Kd [1]: 2.6 nM | koff [1]: 0.0031 s⁻¹ | kon [1]: 1.2e+06 M⁻¹ s⁻¹

B11: Peptide 2: Gly-Ile-[Cys-Val-Trp(Me)-Gln-Asp-Trp-Sar-Ala-His-Arg-Cys]-mIle-NH2 (peptide)
peptide: GICV[Trp(1-Me)]QDW[Sar]AHRC[NMeI]-NH2
modifications: disulfide 3-13; N-terminus assumed
SMILES: CC[C@H](C)[C@H](NC(=O)CN)C(=O)N[C@H]1CSSC[C@@H](C(=O)N(C)[C@H](C(N)=O)[C@@H](C)CC)NC(=O)[C@H](CCCNC(=N)N)NC(=O)[C@H](Cc2c[nH]cn2)NC(=O)[C@H](C)NC(=O)CN(C)C(=O)[C@H](Cc2c[nH]c3ccccc23)NC(=O)[C@H](CC(=O)O)NC(=O)[C@H](CCC(N)=O)NC(=O)[C@H](Cc2cn(C)c3ccccc23)NC(=O)[C@H](C(C)C)NC1=O
Kd [1]: 2.5 nM | koff [1]: 0.0029 s⁻¹ | kon [1]: 1.2e+06 M⁻¹ s⁻¹

B12: Peptide 6: Arg-Ile-[Cys-Val-Trp(Me)-Gln-Asp-Trp-Sar-Ala-His-Arg-Cys]-mIle-NH2 (peptide)
peptide: RICV[Trp(1-Me)]QDW[Sar]AHRC[NMeI]-NH2
modifications: disulfide 3-13; N-terminus assumed
SMILES: CC[C@H](C)[C@H](NC(=O)[C@@H](N)CCCNC(=N)N)C(=O)N[C@H]1CSSC[C@@H](C(=O)N(C)[C@H](C(N)=O)[C@@H](C)CC)NC(=O)[C@H](CCCNC(=N)N)NC(=O)[C@H](Cc2c[nH]cn2)NC(=O)[C@H](C)NC(=O)CN(C)C(=O)[C@H](Cc2c[nH]c3ccccc23)NC(=O)[C@H](CC(=O)O)NC(=O)[C@H](CCC(N)=O)NC(=O)[C@H](Cc2cn(C)c3ccccc23)NC(=O)[C@H](C(C)C)NC1=O
Kd [1]: 1.7 nM | koff [1]: 0.0029 s⁻¹ | kon [1]: 1.7e+06 M⁻¹ s⁻¹

B13: Peptide 19: Ac-Trp-[Cys-Val-Trp(Me)-Gln-Asp-Trp-Sar-Ala-His-Arg-Cys]-mIle-NH2 (peptide)
peptide: Ac-WCV[Trp(1-Me)]QDW[Sar]AHRC[NMeI]-NH2
modifications: disulfide 2-12
SMILES: CC[C@H](C)[C@@H](C(N)=O)N(C)C(=O)[C@@H]1CSSC[C@H](NC(=O)[C@H](Cc2c[nH]c3ccccc23)NC(C)=O)C(=O)N[C@@H](C(C)C)C(=O)N[C@@H](Cc2cn(C)c3ccccc23)C(=O)N[C@@H](CCC(N)=O)C(=O)N[C@@H](CC(=O)O)C(=O)N[C@@H](Cc2c[nH]c3ccccc23)C(=O)N(C)CC(=O)N[C@@H](C)C(=O)N[C@@H](Cc2c[nH]cn2)C(=O)N[C@@H](CCCNC(=N)N)C(=O)N1
Kd [1]: 0.5 nM | koff [1]: 0.0017 s⁻¹ | kon [1]: 3.8e+06 M⁻¹ s⁻¹

B14: Cp40 (6Asn) (peptide)
peptide: [dY]ICV[Trp(1-Me)]QNW[Sar]AHRC[NMeI]-NH2
modifications: disulfide 3-13; N-terminus assumed
SMILES: CC[C@H](C)[C@H](NC(=O)[C@H](N)Cc1ccc(O)cc1)C(=O)N[C@H]1CSSC[C@@H](C(=O)N(C)[C@H](C(N)=O)[C@@H](C)CC)NC(=O)[C@H](CCCNC(=N)N)NC(=O)[C@H](Cc2c[nH]cn2)NC(=O)[C@H](C)NC(=O)CN(C)C(=O)[C@H](Cc2c[nH]c3ccccc23)NC(=O)[C@H](CC(N)=O)NC(=O)[C@H](CCC(N)=O)NC(=O)[C@H](Cc2cn(C)c3ccccc23)NC(=O)[C@H](C(C)C)NC1=O
Kd [3]: 3 nM | koff [3]: 0.0028 s⁻¹ | kon [3]: 900000 M⁻¹ s⁻¹

B15: Peptide 13: mAla-Ile-[Cys-Val-Trp(Me)-Gln-Asp-Trp-Sar-Ala-His-Arg-Cys]-mIle-NH2 (peptide)
peptide: AICVWQDWGAHRCI
modifications: mAla (N-methyl-Ala) at Xaa0; Trp(Me) at position 4; Sar at position 8; mIle at position 13; C-terminal -NH2; cyclic via Cys2-Cys12 disulfide (compstatin position numbering)
Kd [1]: 2.5 nM | koff [1]: 0.0034 s⁻¹ | kon [1]: 1.4e+06 M⁻¹ s⁻¹

B16: Peptide 11: mVal-Ile-[Cys-Val-Trp(Me)-Gln-Asp-Trp-Sar-Ala-His-Arg-Cys]-mIle-NH2 (peptide)
peptide: VICVWQDWGAHRCI
modifications: mVal (N-methyl-Val) at Xaa0; Trp(Me) at position 4; Sar at position 8; mIle at position 13; C-terminal -NH2; cyclic via Cys2-Cys12 disulfide (compstatin position numbering)
Kd [1]: 1.9 nM | koff [1]: 0.0035 s⁻¹ | kon [1]: 1.8e+06 M⁻¹ s⁻¹

— patent US20210032291A1, “Compstatin Analogs With Improved Pharmacokinetic Properties” (The Trustees of the University of Pennsylvania, priority 2011, published 2021)
